Consider two proteins from article doi:10.1101/2025.07.15.665002 (bioRxiv, 2025).

The data set deals with the molecule itself. Description: SAXS.

B1: human mitochondrial malate dehydrogenase (hMDH2), wild type (enzyme, UniProt P40926-1 25-338, looked up)
chain: AKVAVLGASGGIGQPLSLLLKNSPLVSRLTLYDIAHTPGVAADLSHIETKAAVKGYLGPEQLPDCLKGCDVVVIPAGVPRKPGMTRDDLFNTNATIVATLTAACAQHCPEAMICVIANPVNSTIPITAEVFKKHGVYNPNKIFGVTTLDIVRANTFVAELKGLDPARVNVPVIGGHAGKTIIPLISQCTPKVDFPQDQLTALTGRIQEAGTEVVKAKAGAGSATLSMAYAGARFVFSLVDAMNGKEGVVECSFVKSQETECTYFSTPLLLGKKGIEKNLGIGKVSSFEEKMISDAIPELKASIKKGEDFVKTLK
For B1, the “stoichiometry N” value was 2.

B2: human cytosolic malate dehydrogenase, splice variant 3 (hMDH1V3) (enzyme, UniProt P40925-3 1-352, looked up)
chain: MGRRCSYFPKDVTVFDKDDKSEPIRVLVTGAAGQIAYSLLYSIGNGSVFGKDQPIILVLLDITPMMGVLDGVLMELQDCALPLLKDVIATDKEDVAFKDLDVAILVGSMPRREGMERKDLLKANVKIFKSQGAALDKYAKKSVKVIVVGNPANTNCLTASKSAPSIPKENFSCLTRLDHNRAKAQIALKLGVTANDVKNVIIWGNHSSTQYPDVNHAKVKLQGKEVGVYEALKDDSWLKGEFVTTVQQRGAAVIKARKLSSAMSAAKAICDHVRDIWFGTPEGEFVSMGVISDGNSYGVPDDLLYSFPVVIKNKTWKFVEGLPINDFSREKMDLTAKELTEEKESAFEFLSSA
Consider B2, for which the “stoichiometry N” value came out at 2.

The term stoichiometry N denotes a count of units in the complex or per binding partner.
